# B1: Haloferax volcanii Hef protein (helicase-associated endonuclease fork-structure DNA), full length with a six-histidine tag (natural protein, UniProt D4GYC2 1-858, looked up)
# chain: MSASEDVAYVDHPLLAPSFIERRLYQIRLAGTARDGHTLVCLPTGLGKTTVSLLVTAQRLHDVGGKSLFLAPTKPLVQQHADFYREALTVPDDEIVVFTGDVRPDDRAELWQEAQIVIATPQVIENDLIGNRISLRDVTHLTFDECHRASGDYAYVYIAERYHAAAENPLVTGMSASPGGDEEAILEVCENLGIVDVEVMTEEDADVSEYTHDTDVEWNRIQLPDEILEIRDALNEVITDRLEKLKQLGVTKSTKPDISQKKLNRMRAELQRLMNADKSEGYKGMSTHAEVMKLRRAVELVETQSVESVRRYFERQRNAARSSGASKASQRLVAEPKVREAMRKAESFDGLHPKFRKTRILLAETLGIQNGERVIVFTESRDTAEALTEFLSESFSVRRFVGQGDREGSDGMTQNEQQETLDKFRNGEFEVLVSTSVAEEGLDVPEVDLVLFFEPVPTAIRSIQRKGRTGRQADGRVVVLLAEDTRDEAYFWISRRREKTMQNELRDLKGAADDLEAELDPSQRDLSAFAGDDASSAGSAGSSTRNEGVDVASEGDANGASATASSASNGRTATAAATDSDGQSGLADFGPSDEALARADDGDDSHGEDADPADSGDDPASDAEGDEVDDSATVAAAGTDDEDTVEIVVDQRELDSNIARTLSKREDLTTRLETLAVGDYVLSDRVAVERKSVSDFLDTLTGGDRSIFEQIADLTRHYARPLLVIEGRGLYEERNIHPGAIRGALSSVAVDFNVSVLFTEDEDDTAELLATIATREQTDRERTVSVHGGKSAKTLDEQQEYVVSAIADIGPVTARTLLEAFGSVEAVMTANEEDLKEVRGVGQVTAERIREVVGSEYR
# notes: Hef helicase/endonuclease of the XPF/MUS81/FANCM family, Haloferax volcanii; full-length protein; predicted monomeric molecular mass 93.95 kDa; hef amplified from plasmid pTA1097 and cloned into pTA963 (PciI-EcoRI); also called HvoHef; Hef holoprotein; source: H. volcanii (native host, strain lacking hef, tryptophan-induced), purified (Ni-NTA agarose, S-200 gel filtration)
# Molecular target: the molecule itself
# Assay: AUC; sedimentation velocity (0.9, 1 and 1.6 mg/ml) and sedimentation equilibrium (0.6 or 1 mg/ml) at 20°C in buffer C (2M KCl, 10 mM Hepes, pH 7.0), absorbance at 280 nm; SEDFIT and SEDPHAT
protein,measurement,value
B1,stoichiometry N,2

# — PMC3905845, “Intracellular dynamics of archaeal FANCM homologue Hef in response to halted DNA replication” (Nucleic Acids Research, 2013)
